Measured values reported in patent publication US20210071139A1.

These substances were tested against TOX (UniProt Q66JW3) (assay: TOX co-IP from EL4 nuclear extract, LC-MS/MS, MiST).
Sequence of TOX (Q66JW3 whole entry): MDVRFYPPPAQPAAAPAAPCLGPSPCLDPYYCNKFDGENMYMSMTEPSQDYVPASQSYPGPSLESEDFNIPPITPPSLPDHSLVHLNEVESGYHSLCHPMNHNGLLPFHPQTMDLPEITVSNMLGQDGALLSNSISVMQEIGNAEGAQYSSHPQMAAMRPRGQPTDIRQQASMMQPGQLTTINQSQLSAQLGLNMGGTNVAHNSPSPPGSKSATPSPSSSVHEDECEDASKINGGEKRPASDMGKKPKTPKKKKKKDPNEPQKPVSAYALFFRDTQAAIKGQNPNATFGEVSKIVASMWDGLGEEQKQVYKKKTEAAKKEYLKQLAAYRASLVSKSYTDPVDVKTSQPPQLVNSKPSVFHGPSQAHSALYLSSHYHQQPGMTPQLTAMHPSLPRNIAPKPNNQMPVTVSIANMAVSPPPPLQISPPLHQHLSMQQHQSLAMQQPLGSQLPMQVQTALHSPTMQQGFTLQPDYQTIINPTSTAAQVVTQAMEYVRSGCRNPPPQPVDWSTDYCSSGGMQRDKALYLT

Sequence of Emg1 (O35130 whole entry): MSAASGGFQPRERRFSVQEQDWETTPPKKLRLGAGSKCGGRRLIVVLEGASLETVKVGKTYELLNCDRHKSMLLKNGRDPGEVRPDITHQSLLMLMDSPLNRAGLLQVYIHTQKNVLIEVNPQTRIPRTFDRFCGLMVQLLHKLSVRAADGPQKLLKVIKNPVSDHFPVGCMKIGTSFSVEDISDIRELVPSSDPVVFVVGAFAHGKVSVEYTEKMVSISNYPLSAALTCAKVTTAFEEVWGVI
Sequence of Utp11l (Q9CZJ1 whole entry): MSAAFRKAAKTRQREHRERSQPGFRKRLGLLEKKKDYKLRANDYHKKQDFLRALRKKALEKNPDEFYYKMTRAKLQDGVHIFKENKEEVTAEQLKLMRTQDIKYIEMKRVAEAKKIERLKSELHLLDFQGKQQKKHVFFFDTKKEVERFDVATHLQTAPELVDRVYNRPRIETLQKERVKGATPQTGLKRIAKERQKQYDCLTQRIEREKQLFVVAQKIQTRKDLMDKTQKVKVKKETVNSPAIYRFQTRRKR

| Substance | Abundance | MiST Score | Reproducibility | Specificity |
| --- | --- | --- | --- | --- |
| Csrp1 (from UniProt P97315 1-193) | 5.52e-05 | 0.828 | 0.966 | 0.773 |
| Utp11l | 4.22e-05 | 0.856 | 0.553 | 1 |
| Sorbs1 (from UniProt Q62417 1-1290) | 1.52e-05 | 0.829 | 0.997 | 0.76 |
| Ccnk (from UniProt O88874 1-554) | 1.18e-05 | 0.846 | 0.975 | 0.795 |
| Cnot1 (from UniProt Q6ZQ08 1-2375) | 5.57e-07 | 0.85 | 0.931 | 0.821 |

Each substance was assayed against TOX (UniProt Q66JW3) (assay: anti-TOX IP from EL4 cells, mass spectrometry, MiST analysis).

| Substance | Abundance | MiST Score | Reproducibility | Specificity |
| --- | --- | --- | --- | --- |
| Dnaja2 (from UniProt Q9QYJ0 1-409) | 0.000332 | 0.8 | 0.946 | 0.742 |
| Baz1a (from UniProt O88379 1-1555) | 4.09e-07 | 0.825 | 0.454 | 1 |
| LRWD1 (from UniProt Q8BUI3 1-648) | 9.87e-06 | 0.803 | 0.965 | 0.737 |
| Otud4 (from UniProt B2RRE7 1-1107) (enzyme) | 9.24e-07 | 0.818 | 0.993 | 0.747 |
| Dnmt1 (from UniProt P13864 1-1620) (enzyme) | 4.05e-06 | 0.814 | 0.929 | 0.77 |
| Rps23 (from UniProt P62267 1-143) | 0.00479 | 0.807 | 0.997 | 0.728 |
| Nmt1 (from UniProt O70310 1-496) (enzyme) | 6.96e-06 | 0.821 | 0.948 | 0.772 |
| Srsf5 (from UniProt O35326 1-269) | 0.000505 | 0.807 | 0.996 | 0.729 |
| Rpl14; Rpl14-ps1 (from UniProt Q9CR57 1-217) | 0.00405 | 0.797 | 0.997 | 0.714 |
| Ahnak | 6.22e-06 | 0.812 | 0.497 | 0.961 |
| Yars (from UniProt Q91WQ3 1-528) (enzyme) | 2.51e-06 | 0.802 | 0.379 | 1 |
| Add3 (from UniProt Q9QYB5 2-706) | 3.22e-06 | 0.807 | 0.394 | 1 |
| Stau1 (from UniProt Q9Z108 1-487) | 1.96e-05 | 0.825 | 0.951 | 0.776 |
| Ipo4 (from UniProt Q8VI75 1-1082) | 1.65e-06 | 0.826 | 0.94 | 0.782 |
| Ep400 (from UniProt Q8CHI8 1-3072) | 2.31e-06 | 0.825 | 0.451 | 1 |
| Cpsf3 (from UniProt Q9QXK7 2-684) (enzyme) | 1.17e-05 | 0.825 | 0.871 | 0.811 |
| Supt16; Supt16h (from UniProt Q920B9 2-1047) | 4.95e-06 | 0.818 | 0.8 | 0.833 |
| Dst (from UniProt Q91ZU6 1-7393) | 1.97e-08 | 0.804 | 0.385 | 1 |

The substances below were run against TOX (UniProt Q66JW3) (assay: anti-TOX IP from EL4 nuclear extract, LC-MS/MS, MiST analysis).

| Substance | Abundance | MiST Score | Reproducibility | Specificity |
| --- | --- | --- | --- | --- |
| Hp1bp3 (from UniProt Q3TEA8 2-554) | 1.65e-05 | 0.766 | 0.779 | 0.766 |
| Cd3eap (from UniProt Q76KJ5 1-399) | 0.000224 | 0.773 | 0.993 | 0.68 |
| BC005685 | 0.000234 | 0.779 | 0.959 | 0.705 |
| Slc25a3 (from UniProt Q8VEM8 46-357) | 6.71e-05 | 0.778 | 0.975 | 0.696 |
| Rcc1 (from UniProt Q8VE37 2-421) | 2.79e-05 | 0.796 | 0.986 | 0.717 |
| Numa1 (from UniProt E9Q7G0 1-2094) | 1.43e-06 | 0.787 | 0.775 | 0.799 |
| Acin1 (from UniProt Q9JIX8 1-1338) | 2.27e-05 | 0.77 | 0.612 | 0.848 |
| Srp72 | 3.55e-05 | 0.765 | 0.872 | 0.723 |
| Ap3b1 (from UniProt Q9Z1T1 1-1105) | 4.13e-06 | 0.778 | 0.696 | 0.821 |
| Slc25a4 (from UniProt P48962 2-298) | 0.000186 | 0.765 | 0.959 | 0.684 |
| Xrn2 (from UniProt Q9DBR1 1-951) (enzyme) | 8.55e-06 | 0.787 | 0.804 | 0.787 |
| Luzp1; mFLJ00226 (from UniProt Q8R4U7 2-1068) | 7.26e-06 | 0.792 | 0.856 | 0.77 |
| Thoc1 (from UniProt Q8R3N6 1-657) | 9.29e-06 | 0.775 | 0.999 | 0.681 |
| Pfkl (from UniProt P12382 2-780) (enzyme) | 3.37e-06 | 0.768 | 0.501 | 0.894 |
| Racgap1 (from UniProt Q9WVM1 1-628) | 8.29e-06 | 0.793 | 0.868 | 0.765 |
| Usp10 (from UniProt P52479 2-792) (enzyme) | 3.26e-06 | 0.793 | 0.613 | 0.881 |
| Brd1 | 3.1e-06 | 0.785 | 0.321 | 1 |
| Terf2 (from UniProt O35144 1-541) | 6.86e-06 | 0.79 | 0.994 | 0.705 |
| Elmo1 (from UniProt Q8BPU7 1-727) | 5.93e-06 | 0.769 | 0.595 | 0.854 |
| Emg1 (from UniProt O35130 1-244) (enzyme) | 7.66e-05 | 0.766 | 0.939 | 0.695 |

| Substance | Abundance | MiST Score | Reproducibility | Specificity |
| --- | --- | --- | --- | --- |
| Tcof1 (from UniProt O08784 1-1320) | 0.000142 | 0.77 | 0.984 | 0.681 |
| Slc25a11 (from UniProt Q9CR62 2-314) | 2.29e-05 | 0.788 | 0.956 | 0.72 |
| Rbm15 (from UniProt Q0VBL3 1-962) | 8.04e-06 | 0.776 | 0.987 | 0.687 |
| Srrm2 (from UniProt Q8BTI8 1-2703) | 1.1e-06 | 0.769 | 0.861 | 0.734 |
| Cycs (from UniProt P62897 2-105) | 8.14e-05 | 0.793 | 0.957 | 0.726 |
| Wdr36 | 3.46e-06 | 0.785 | 0.886 | 0.747 |
| Ywhah (from UniProt P68510 2-246) | 6.28e-05 | 0.774 | 0.819 | 0.761 |
| Ppan (from UniProt Q91YU8 1-470) | 4.7e-05 | 0.792 | 0.959 | 0.723 |
| Gm20425; Srprb (from UniProt P47758 1-269) | 5.88e-06 | 0.766 | 0.92 | 0.703 |
| Rcc2 (from UniProt Q8BK67 1-520) | 3.74e-05 | 0.79 | 0.958 | 0.722 |
| Eif2a (from UniProt Q8BJW6 1-581) | 8.58e-05 | 0.794 | 0.992 | 0.712 |
| Csnk2a2 (from UniProt O54833 1-350) (enzyme) | 2.87e-05 | 0.778 | 0.913 | 0.725 |
| Lztfl1 (from UniProt Q9JHQ5 1-299) | 6.33e-05 | 0.776 | 0.894 | 0.73 |
| Eif3h (from UniProt Q91WK2 1-352) | 0.000105 | 0.784 | 0.956 | 0.714 |
| Umps (from UniProt P13439 1-481) (enzyme) | 2.41e-06 | 0.766 | 0.792 | 0.761 |
| Xrcc5 (from UniProt P27641 1-732) | 2.92e-05 | 0.775 | 0.737 | 0.799 |
| Smarca4 (from UniProt Q3TKT4 1-1613) (enzyme) | 6.52e-07 | 0.786 | 0.594 | 0.879 |
| Sin3a (from UniProt Q60520 1-1274) | 5.49e-06 | 0.773 | 0.284 | 1 |
| Zw10 (from UniProt O54692 2-779) | 2.83e-06 | 0.767 | 0.582 | 0.857 |
| Bag6 (from UniProt Q9Z1R2 1-1154) | 1.4e-06 | 0.782 | 0.765 | 0.797 |
